Source: patent US20240190956A1 (IMMUNOGEN, published 2024)

How the values were obtained:
CD123 = CD123 (UniProt P26951 19-378, limits assumed); experiment: cell-based or functional assay
[1] = molecular target: T1, folate receptor alpha (FR-α) (human, UniProt P15328 25-234); experiment: FACS on T47D cells
T1 construct: whole, on cells; also called FOLR1; human folate receptor 1
Experimental: T47D cells were then resuspended in growth media (see above) to neutralize trypsin, and were counted on a Coulter counter. Cells were then washed twice in cold FACS buffer, centrifuging in between washes at 1200 rpm for 5 min.
About 100 μl/mL of 2×10⁴ cells/well were added to wells containing ADC, antibody or FACS buffer only, and incubated at 4° C. for 2 hr. After incubation, cells were centrifuged as before and washed once in 200 μL/well cold FACS buffer. Cells were then stained with 200 μL/well FITC-conjugated Goat Anti-Human-IgG-Fcγ secondary antibody (controls included were unstained cells and those stained with secondary antibody only) for 40 min at 4° C., centrifuged and washed once in 200 μL/well cold PBS-D. Cells were fixed in 200 μL/well 1% formaldehyde/PBS-D and stored at 4° C.
After storage, cellular surface staining of conjugate or antibody was detected using flow cytometry on a FACS Calibur (BD Biosciences). The geometric means were plotted against the log concentration of ADC or antibody using GraphPad Prism and the EC₅₀ was calculated via non-linear 4-parameter logistic regression analysis.

[2] = molecular target: T1, folate receptor alpha (FR-α); experiment: cell-based or functional assay

T1 sequence (P15328 25-234): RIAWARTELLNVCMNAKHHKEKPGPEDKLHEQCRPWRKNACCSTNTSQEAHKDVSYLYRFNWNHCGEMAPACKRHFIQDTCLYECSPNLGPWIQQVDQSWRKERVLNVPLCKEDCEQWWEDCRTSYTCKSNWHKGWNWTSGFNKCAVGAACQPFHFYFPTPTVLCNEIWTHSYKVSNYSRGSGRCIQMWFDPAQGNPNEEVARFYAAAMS
CD123, sequence (P26951 19-378 limits assumed): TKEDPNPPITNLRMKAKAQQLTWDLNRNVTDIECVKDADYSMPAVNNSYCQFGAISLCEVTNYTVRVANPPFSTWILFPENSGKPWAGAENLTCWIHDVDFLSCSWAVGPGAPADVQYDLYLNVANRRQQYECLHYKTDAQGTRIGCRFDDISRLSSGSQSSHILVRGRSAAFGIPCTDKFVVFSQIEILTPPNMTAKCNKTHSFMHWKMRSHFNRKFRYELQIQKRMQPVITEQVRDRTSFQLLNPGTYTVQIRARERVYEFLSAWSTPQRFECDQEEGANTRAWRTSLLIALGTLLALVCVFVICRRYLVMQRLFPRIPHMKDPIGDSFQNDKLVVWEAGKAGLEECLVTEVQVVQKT

B1: huCD123-6Rv1.1S2-SeriMab-D8 (antibody, V domains shown)
VH: SFQLVQSGAEVVKPGASVKMSCKASGYTFTSSIMHWMKQKPGQGLEWIGYIKPYNDGTKYNQKFQGKATLTSDKSSSTANMELNSLTSEDSAVYYCAREGGNDYYDTMDYWGQGTSVTVSS
VL: DIQMTQSPSSMSASVGERVTITCRASQDINSYLSWFQQKPGKSPKTLIYRVNRLVDGVPSRFSGSGSGQDYSLTISSLEPEDMGIYYCLQYDAFPYTFGQGTKLEIKR
Which “IC50 of cytotoxicity on HNT-34 cells (WST-8)” value (CD123) does the source give for B1 here?
The value was roughly 0.002 nM.

What about the “IC50 of cytotoxicity on MOLM-1 cells (WST-8)” value (CD123) of the same binder?
Its value is roughly 0.03 nM.

What about the “IC50 of cytotoxicity on SHI-1 cells (WST-8)” value (CD123) of the same binder?
The value was roughly 0.01 nM.

And the “loss of cytotoxicity when CD123 is blocked by unconjugated huCD123-6 antibody” value (CD123)?
The value was 100 fold.

B2: huMOV19-NTS #2 (antibody)
heavy: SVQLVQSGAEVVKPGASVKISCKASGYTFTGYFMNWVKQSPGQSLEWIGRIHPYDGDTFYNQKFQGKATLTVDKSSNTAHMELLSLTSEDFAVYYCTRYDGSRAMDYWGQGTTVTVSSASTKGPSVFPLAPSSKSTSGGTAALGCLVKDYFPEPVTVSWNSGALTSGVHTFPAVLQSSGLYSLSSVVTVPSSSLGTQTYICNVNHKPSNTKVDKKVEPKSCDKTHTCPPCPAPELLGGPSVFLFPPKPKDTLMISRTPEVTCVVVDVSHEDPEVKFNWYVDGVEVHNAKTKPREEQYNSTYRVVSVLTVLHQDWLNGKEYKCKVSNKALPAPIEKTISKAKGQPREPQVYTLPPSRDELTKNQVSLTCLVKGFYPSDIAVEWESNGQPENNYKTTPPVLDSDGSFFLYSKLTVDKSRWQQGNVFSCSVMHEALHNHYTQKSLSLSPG
light: DIVLTQSPLSLAVSLGQPAIISCKASQSVSFAGTSLMHWYHQKPGQQPRLLIYRASNLEAGVPDRFSGSGSKTDFTLTISPVEAEDAATYYCQQSREYPYTFGGGTKLEIKRTVAAPSVFIFPPSDEQLKSGTASVVCLLNNFYPREAKVQWKVDNALQSGNSQESVTEQDSKDSTYSLSSTLTLSKADYEKHKVYACEVTHQGLSSPVTKSFNRGEC
notes: huMOV19 with the heavy chain N-terminal Gln replaced by Ser (huMov19 HC NTS2); also called SeriMab; huMOV19-SeriMab antibody
Does B2 bind [1]?
Result: binds

B3: huMOV19 (antibody, human IgG1, kappa)
heavy: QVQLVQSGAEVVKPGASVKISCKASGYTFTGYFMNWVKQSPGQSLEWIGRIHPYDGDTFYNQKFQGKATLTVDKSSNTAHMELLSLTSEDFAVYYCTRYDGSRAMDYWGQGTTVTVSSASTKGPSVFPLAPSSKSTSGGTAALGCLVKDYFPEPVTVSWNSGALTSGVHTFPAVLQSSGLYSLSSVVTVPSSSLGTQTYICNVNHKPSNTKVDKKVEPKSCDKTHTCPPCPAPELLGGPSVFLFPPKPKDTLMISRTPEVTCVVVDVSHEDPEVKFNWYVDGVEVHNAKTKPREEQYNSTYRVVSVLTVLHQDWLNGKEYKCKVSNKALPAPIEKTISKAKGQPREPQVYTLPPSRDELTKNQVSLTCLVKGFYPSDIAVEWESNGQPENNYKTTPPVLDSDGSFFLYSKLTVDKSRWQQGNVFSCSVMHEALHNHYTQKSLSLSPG
light: DIVLTQSPLSLAVSLGQPAIISCKASQSVSFAGTSLMHWYHQKPGQQPRLLIYRASNLEAGVPDRFSGSGSKTDFTLTISPVEAEDAATYYCQQSREYPYTFGGGTKLEIKRTVAAPSVFIFPPSDEQLKSGTASVVCLLNNFYPREAKVQWKVDNALQSGNSQESVTEQDSKDSTYSLSSTLTLSKADYEKHKVYACEVTHQGLSSPVTKSFNRGEC
notes: Humanized anti-folate receptor alpha IgG1/kappa; also called M9346A; unconjugated native huMOV19 antibody
Does B3 bind [1]?
Result: binds

B4: huMOV19-NTS #2-Linker1-Compound A (antibody)
heavy: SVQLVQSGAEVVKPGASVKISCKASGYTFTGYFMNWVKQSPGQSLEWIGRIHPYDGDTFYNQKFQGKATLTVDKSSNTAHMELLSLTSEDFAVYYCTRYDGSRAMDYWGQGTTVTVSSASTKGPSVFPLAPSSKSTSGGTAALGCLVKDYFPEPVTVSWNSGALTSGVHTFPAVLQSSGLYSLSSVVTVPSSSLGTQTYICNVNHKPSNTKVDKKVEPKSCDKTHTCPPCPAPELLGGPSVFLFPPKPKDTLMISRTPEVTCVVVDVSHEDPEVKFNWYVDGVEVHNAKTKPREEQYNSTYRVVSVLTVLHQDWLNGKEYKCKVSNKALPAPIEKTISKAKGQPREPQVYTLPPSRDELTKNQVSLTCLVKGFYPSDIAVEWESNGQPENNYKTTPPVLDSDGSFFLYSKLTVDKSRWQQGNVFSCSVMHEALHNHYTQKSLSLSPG
light: DIVLTQSPLSLAVSLGQPAIISCKASQSVSFAGTSLMHWYHQKPGQQPRLLIYRASNLEAGVPDRFSGSGSKTDFTLTISPVEAEDAATYYCQQSREYPYTFGGGTKLEIKRTVAAPSVFIFPPSDEQLKSGTASVVCLLNNFYPREAKVQWKVDNALQSGNSQESVTEQDSKDSTYSLSSTLTLSKADYEKHKVYACEVTHQGLSSPVTKSFNRGEC
modifications: N-terminal Ser oxidized to an aldehyde and linked through Linker1 to Compound A (sulfonated DGN462); two Compound A molecules per antibody
What does the source list for B4?
cytotoxicity on KB cells (WST-8), potency against the lysine-conjugated ADC, by Compound A concentration [2]: ~5 fold; cytotoxicity on KB cells (WST-8), potency against the lysine-conjugated ADC, by antibody concentration [2]: ~3 fold
